B1: mouse chemerin C15 peptide (peptide)
peptide: AGEDPHGYFLPGQFA
B2: human chemerin C16 peptide (peptide)
peptide: AGEDPHSFYFPGQFAF
B3: human chemerin C15 peptide (peptide)
peptide: AGEDPHSFYFPGQFA
B4: human chemerin C17 peptide (peptide)
peptide: AGEDPHSFYFPGQFAFS

Tests used:
Assay in all cases: cell-based or functional assay
[1] = biological target: human ChemR23 (CMKLR1), PathHunter β-Arrestin CHO cell line (human, UniProt Q99788 1-373)
[2] = biological target: T1, GPR1, PathHunter β-Arrestin CHO cell line (human, UniProt P46091 1-355)
T1 sequence (P46091 whole entry, species assumed, looked up): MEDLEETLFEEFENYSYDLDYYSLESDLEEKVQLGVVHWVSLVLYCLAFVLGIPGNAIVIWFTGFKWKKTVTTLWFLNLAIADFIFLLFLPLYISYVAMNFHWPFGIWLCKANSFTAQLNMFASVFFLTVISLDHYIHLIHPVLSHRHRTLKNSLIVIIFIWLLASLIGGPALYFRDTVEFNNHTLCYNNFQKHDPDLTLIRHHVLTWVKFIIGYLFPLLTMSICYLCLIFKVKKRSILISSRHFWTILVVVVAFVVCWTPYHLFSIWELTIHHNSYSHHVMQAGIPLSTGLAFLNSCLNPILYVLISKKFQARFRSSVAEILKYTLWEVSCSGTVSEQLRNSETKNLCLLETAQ

[3] = biological target: T2, mouse ChemR23, PathHunter β-Arrestin cell line (mouse, UniProt P97468 1-371)
T2 sequence (P97468 whole entry, looked up): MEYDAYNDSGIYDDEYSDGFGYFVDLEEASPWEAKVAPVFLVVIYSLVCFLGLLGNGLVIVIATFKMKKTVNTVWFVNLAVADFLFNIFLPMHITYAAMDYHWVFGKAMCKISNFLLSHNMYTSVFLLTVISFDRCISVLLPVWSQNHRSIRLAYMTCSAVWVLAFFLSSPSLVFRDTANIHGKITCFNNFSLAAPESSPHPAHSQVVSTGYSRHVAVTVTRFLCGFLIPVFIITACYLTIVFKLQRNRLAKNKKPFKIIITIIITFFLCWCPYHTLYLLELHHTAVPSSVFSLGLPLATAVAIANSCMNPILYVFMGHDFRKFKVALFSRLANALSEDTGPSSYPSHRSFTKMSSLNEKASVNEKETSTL

[4] = biological target: T3, human ChemR23, cAMP Hunter cell line (human, UniProt Q99788 1-373)
T3 sequence (looked up): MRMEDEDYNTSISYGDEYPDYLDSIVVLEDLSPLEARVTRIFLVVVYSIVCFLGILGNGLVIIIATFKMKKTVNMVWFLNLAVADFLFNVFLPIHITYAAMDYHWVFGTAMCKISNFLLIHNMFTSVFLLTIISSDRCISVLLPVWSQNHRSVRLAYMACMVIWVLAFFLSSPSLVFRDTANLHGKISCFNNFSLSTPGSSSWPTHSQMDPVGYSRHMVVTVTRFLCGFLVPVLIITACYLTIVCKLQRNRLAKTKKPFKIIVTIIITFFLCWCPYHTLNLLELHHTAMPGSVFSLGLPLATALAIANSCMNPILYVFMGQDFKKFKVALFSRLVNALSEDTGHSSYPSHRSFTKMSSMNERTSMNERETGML

Row | Binder | % Max Activity, PathHunter β-Arrestin agonist [1] [%] | % Max Inhibition, PathHunter β-Arrestin antagonist against chemerin at EC80 [1] [%] | [EC50] (M), PathHunter β-Arrestin agonist [1] [M] | [IC50] (M), PathHunter β-Arrestin antagonist against chemerin at EC80 [1] [M] | % Max Activity, PathHunter β-Arrestin agonist [2] [%] | % Max Inhibition, PathHunter β-Arrestin antagonist against chemerin at EC80 [2] [%] | [EC50] (M), PathHunter β-Arrestin agonist [2] [M] | [IC50] (M), PathHunter β-Arrestin antagonist against chemerin at EC80 [2] [M] | EC50, Arrestin, Agonist (RC50, uM) [3] [µM] | IC50, Arrestin, Antagonist (RC50, uM) [3] [µM] | IC50, cAMP, Antagonist (RC50, uM) [4] [µM]
1 | B1 | 0.4 | 0 | > 1e-05 | > 1e-05 | 27.8 | 0 | 3.7e-06 | > 1e-05 | > 10 | > 10 | > 10
2 | B2 | 98.6 | 0 | 2.9e-08 | > 1e-05 | 87.9 | 0 | 2.1e-09 | > 1e-05 | 0.0385 | > 10 | > 10
3 | B3 | 0.8 | 0 | > 1e-05 | > 1e-05 | 10.6 | 0 | 0.017 | > 1e-05 | > 10 | 9.66 | > 10
4 | B4 | 67.5 | 0 | 4.8e-07 | > 1e-05 | 80.9 | 0 | 1.5e-09 | > 1e-05 | 0.84 | > 10 | > 10

Source: patent publication US20160136231A1 (ROGNE BIOSCIENCE, published 2016)
